In patent publication US20140120555A1 one finds MFI data, which are given here for one molecule.

For experiment [1], the target named is human CXCR4 (Chemokine receptor 4) (human) (UniProt P61073). Nature of the experiment: FACS on NIH3T3-CXCR4 transfected cells, 10 µg/ml antibody.
The target is the same in experiment [2]. Kind of experiment: FACS on MDA-MB-231 breast cancer cells (endogenous CXCR4), 10 µg/ml antibody.
Experiment [3] has the same target. Kind of experiment: FACS on Hela cervix cancer cells (endogenous CXCR4), 10 µg/ml antibody.
The target is the same in experiment [4]. Kind of experiment: FACS on U937 promyelocytic cancer cells (endogenous CXCR4), 10 µg/ml antibody.

Sequence of human CXCR4 (Chemokine receptor 4) (human) (P61073 whole entry): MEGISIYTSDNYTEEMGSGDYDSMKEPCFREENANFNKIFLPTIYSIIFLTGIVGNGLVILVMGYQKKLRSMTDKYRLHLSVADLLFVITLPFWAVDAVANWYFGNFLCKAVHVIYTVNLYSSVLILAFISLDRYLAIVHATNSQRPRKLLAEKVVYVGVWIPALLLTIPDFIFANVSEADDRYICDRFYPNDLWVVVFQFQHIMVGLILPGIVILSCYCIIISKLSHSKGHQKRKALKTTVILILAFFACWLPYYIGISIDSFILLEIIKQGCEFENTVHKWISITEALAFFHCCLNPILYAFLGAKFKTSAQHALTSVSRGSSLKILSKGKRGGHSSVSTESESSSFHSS

B1: murine monoclonal antibody 515H7 (hybridoma CNCM I-4019) (antibody, V domains shown)
VH: EVNLVESGGGLVQPGGSLRLSCATSGFTFTDNYMSWVRQPPGKALEWLGFIRNKANGYTTDYSASVRGRFTISRDNSQSILYLQMNALRAEDSATYYCARDVGSNYFDYWGQGTTLTVSS
VL: DIVMSQSPSSLAVSAGEKVTMSCKSSQSLFNSRTRKNYLAWYQQKPGQSPKLLIYWASARDSGVPARFTGSGSETYFTLTISRVQAEDLAVYYCMQSFNLRTFGGGTKLEIK
modifications: Biotinylated when used as tracer in the competition assay of Example 3 (site not stated); unlabelled in Example 2.
As to B1, the MFI is 2750 MFI in experiment [1], 239 MFI in experiment [2], 1850 MFI in experiment [3] and 645 MFI in experiment [4].
